Measured values published in PMC8424379 (2021).

B1: full-length Ccq1 fused to Gal4 activation domain [S. pombe] / Tpz1 fused to the Gal4 DNA binding domain [S. pombe] (parent complex)
chain 1: MSEINDFTNSIIINESDTKYEVYSEVNSSNRWIAKEDCPSPLEDVWLLKLAGHKRKLEEPLSCMRNEEPASKQREIEKFLRTDLDHSENDFLTQEVDEFPSTQQLFPIPLQNDTAFDSSEESITKSSKSSFSVLDIGLPMSALQRKMMHRLVQYFAFCIDHFCTGPSDSRIQEKIRLFIQSAHNIAKHPSLYDTEVRNPSAAESTNSHVSLDASNFSSYAENSSKFLFLQELFKNLSPSYSKTFFLFISNQFLANTLTQWLKSQNIDAELWAEEDAKTSQHPAIWICVSKKAPSASHFLQSCPDLSATIFYDIEAYMSVTSSLPSIQSLVLRLIHLGSIEHAIKCFQSSYNASFLVNIVGVVATLSSSSEENSEASNLSTLFEKSGNFEEILGSESHSSITEKTRDIAKNVATWLKNGENFSSWPLPPLMDLASLSVAEPRDSQPSVSQVNDTFVKSSDSTFPSSQSMQSPSKLHSLTSNATDLLSSSSLKKNFFSQQEADEVELSNNYDLQGAAVQYLQRRLRMVEDELHEAINSKNVQQSRSEELEQQISKLTDNLQEYRNTVRELKLDLEKSKKKNEDLSKLEVEKVEEIANLKKELTHLAKQQEFGFKYVQEFSNEDLQGKLIEANEKNYKLTQLLKTQKEDADFITNQYQNASTFAAEQSKEVAKLQAECKRLQAINSKVMEEVKVYNDSRVEALLAKVSSLEETLKILEQKSLPKFTPHNQSPRIIDSN
chain 2: MSNCLKHPWLENGLLNLIKNADVLPIRVFKCQPLQIFEYIRYEHPIRCKLSDTEFYIEAEFSSQSISDLNNFTEKRITSLRGGIVTLGNFLIHLIPSQSGIIPWIQVESFNFQGCEGAVFGNPKAITTSALFNALLQSPYLAALANEFNRSIKEGSSYQEASLSQQEKPNDNTSNSRDIKNNIQFHWKNMTSLSIEECIIPKGQQLILEKESEENTTHGIYLEERKMAQGLHNSVSETPEVKQEDNDEDLDAYSWSSSTDSAGEIPSLPTNRKILEKIAEKPPPFESPLEDDETPDQTNEHEANQVNVSQLPLNPRGSGISGRPVESTEQLNSSLTIERSQSIQSTDSKQRVETQSHRRSKIEIFDAQDELFDRSICTTIDDSTGKLLNAEETPIKTGDLHSTSASSVISCTPPAINFTSDICNEQIELEYKRKPIPDYDFMKGLETTLQELYVEHQSKKRRLELFQLTNNHQKNSEACEMCRLGLPHGSFFELLRDWKKIEEFRNKS
B2: Ccq1_(496–583), Raf2-binding motif of Ccq1, fused to Gal4 activation domain [S. pombe] / Raf2 fused to Gal4 DNA-binding domain [S. pombe] (parent complex)
chain 1: SQQEADEVELSNNYDLQGAAVQYLQRRLRMVEDELHEAINSKNVQQSRSEELEQQISKLTDNLQEYRNTVRELKLDLEKSKKKNEDLS
chain 2: MPPVRAEKKRKTDLIEQVCVTNKAGELVDLEDVLEYGPYSLTGILSSEKDEQEPLFDESIVLGYSIKISPVWTYNLKDVPEKETMSIWIVTPQRRYGILSPSSEYKAIYEQISEKNRLFYLIKTKFKDDMISGTLEDYDNYIEVLKEKLELPSCFQAILLVQKHIRFLLTQMVATSSLHVWSESPFFIRIRSSYEHLILQINKNIYNARQERKKSKLSSNNPSDNNTTMKSSLNQALTLINLPEQPFSISSPTATPQLGVVKRTSPLRFPLNDIWLSGLRIVDPNIESISLWKRIQVSTSPKHQRYISLQEVCSVIAQQLQITNLEALNKLSSHGETLLQIMHTAFTWRGTKLFNDIKHAIGFRSSVQQARSQFRGYCYDYLFMHCNNGEKTSLHLLRTLICMKLDFSNAQLAAKILFHFLLFDIGSGLSGSDYTYEQYINHSAVAFSFTEEIFEKNFVTVLPDFVKLFSISFGYWPAFSFYDELLKLLRNKYPKVYSSTPNLCDQVWLDRTNLFPCNRSTRSTLPYRPTKLLDLASASSCLSKKETDFKQDTGLYSYNLEKVEALKVSPDLQTGIWSCPVQNCLYFAVCDNPYKPSQVIYDHLLGHVDSKFIFKTPSNSVRSFTNKLEHIMYNIN
B3: full-length Ccq1 fused to Gal4 activation domain [S. pombe] / Raf2 fused to Gal4 DNA-binding domain [S. pombe] (parent complex)
chain 1: B1 chain 1
chain 2: B2 chain 2
B4: full-length Ccq1 fused to Gal4 activation domain [S. pombe] / Clr3 fused to the Gal4 DNA binding domain [S. pombe] (parent complex)
chain 1: B1 chain 1
chain 2: MLASNSDGASTSVKPSDDAVNTVTPWSILLTNNKPMSGSENTLNNESHEMSQILKKSGLCYDPRMRFHATLSEVDDHPEDPRRVLRVFEAIKKAGYVSNVPSPSDVFLRIPAREATLEELLQVHSQEMYDRVTNTEKMSHEDLANLEKISDSLYYNNESAFCARLACGSAIETCTAVVTGQVKNAFAVVRPPGHHAEPHKPGGFCLFNNVSVTARSMLQRFPDKIKRVLIVDWDIHHGNGTQMAFYDDPNVLYVSLHRYENGRFYPGTNYGCAENCGEGPGLGRTVNIPWSCAGMGDGDYIYAFQRVVMPVAYEFDPDLVIVSCGFDAAAGDHIGQFLLTPAAYAHMTQMLMGLADGKVFISLEGGYNLDSISTSALAVAQSLLGIPPGRLHTTYACPQAVATINHVTKIQSQYWRCMRPKHFDANPKDAHVDRLHDVIRTYQAKKLFEDWKITNMPILRDSVSNVFNNQVLCSSNFFQKDNLLVIVHESPRVLGNGTSETNVLNLNDSLLVDPVSLYVEWAMQQDWGLIDINIPEVVTDGENAPVDILSEVKELCLYVWDNYVELSISKNIFFIGGGKAVHGLVNLASSRNVSDRVKCMVNFLGTEPLVGLKTASEEDLPTWYYRHSLVFVSSSNECWKKAKRAKRRYGRLMQSEHTETSDMMEQHYRAVTQYLLHLLQKARPTSQ

Variants of: B1
Assay: yeast two-hybrid (β-galactosidase); Tpz1 fused to the Gal4 DNA binding domain; Ccq1 fused to Gal4 activation domain; parent: 94; read off a plot

Variant	response
chain 1 L519R	~83
chain 1 Y518R	~91
chain 1 V516R	~81
chain 1 L511R	~95
chain 1 L523R	~90

Variants of: B2
Assay: yeast two-hybrid (β-galactosidase); Raf2 fused to Gal4 DNA-binding domain; Ccq1 fused to Gal4 activation domain; read off a plot

Variant	response
chain 1 SQQEADEVELSNNYDLQGAAVQYLQRRLRMVEDELREAINSKNVQQSRSEELEQQISKLTDNLQEYRNTVRELKLDLEKSKKKNEDLS [chain 1 H36R]	~94
chain 1 SQQEADEVELSNNYDLQGAARQYLQRRLRMVEDELHEAINSKNVQQSRSEELEQQISKLTDNLQEYRNTVRELKLDLEKSKKKNEDLS [chain 1 V21R]	~2.8
chain 1 SQQEADEVELSNNYDLQGAAVQYLQRRLRMVEDELHEAINSKNRQQSRSEELEQQISKLTDNLQEYRNTVRELKLDLEKSKKKNEDLS [chain 1 V44R]	~81
chain 1 SQQEADEVELSNNYDLQGAAVQYLQRRLRMVEDELHEAINSKNVQQSRSEELEQQISKLTDNLQERRNTVRELKLDLEKSKKKNEDLS [chain 1 Y66R]	~79
chain 1 SQQEADEVELSNNYDLQGAAVQYLQRRRRMVEDELHEAINSKNVQQSRSEELEQQISKLTDNLQEYRNTVRELKLDLEKSKKKNEDLS [chain 1 L28R]	~3
chain 1 SQQEADEVELSNNYDLQGAAVQRLQRRLRMVEDELHEAINSKNVQQSRSEELEQQISKLTDNLQEYRNTVRELKLDLEKSKKKNEDLS [chain 1 Y23R]	~3
chain 1 SQQEADEVELSNNYDLQGAAVQYLQRRLRRVEDELHEAINSKNVQQSRSEELEQQISKLTDNLQEYRNTVRELKLDLEKSKKKNEDLS [chain 1 M30R]	~92
chain 1 SQQEADERELSNNYDLQGAAVQYLQRRLRMVEDELHEAINSKNVQQSRSEELEQQISKLTDNLQEYRNTVRELKLDLEKSKKKNEDLS [chain 1 V8R]	~82
chain 1 SQQEADEVELSNNYDLQGAAVQYLQRRLRMVEDELHEARNSKNVQQSRSEELEQQISKLTDNLQEYRNTVRELKLDLEKSKKKNEDLS [chain 1 I39R]	~90
chain 1 SQQEADEVELSNNRDLQGAAVQYLQRRLRMVEDELHEAINSKNVQQSRSEELEQQISKLTDNLQEYRNTVRELKLDLEKSKKKNEDLS [chain 1 Y14R]	~88
chain 1 SQQEADEVELSNNYDLQGAAVQYLQRRLRMVEDELHEAINSKNVQQSRSEELEQQISKLTDNRQEYRNTVRELKLDLEKSKKKNEDLS [chain 1 L63R]	~85
chain 1 SQQEADEVELSNNYDRQGAAVQYLQRRLRMVEDELHEAINSKNVQQSRSEELEQQISKLTDNLQEYRNTVRELKLDLEKSKKKNEDLS [chain 1 L16R]	~3
chain 1 SQQEADEVELSNNYDLQGAAVQYLQRRLRMREDELHEAINSKNVQQSRSEELEQQISKLTDNLQEYRNTVRELKLDLEKSKKKNEDLS [chain 1 V31R]	~80
chain 1 SQQEADEVELSNNYDLQGAAVQYLQRRLRMVEDELHEAINSKNVQQSRSEEREQQISKLTDNLQEYRNTVRELKLDLEKSKKKNEDLS [chain 1 L52R]	~63
chain 1 SQQEADEVELSNNYDLQGAAVQYRQRRLRMVEDELHEAINSKNVQQSRSEELEQQISKLTDNLQEYRNTVRELKLDLEKSKKKNEDLS [chain 1 L24R]	~2.5
chain 1 SQQEADEVELSNNYDLQGAAVQYLQRRLRMVEDERHEAINSKNVQQSRSEELEQQISKLTDNLQEYRNTVRELKLDLEKSKKKNEDLS [chain 1 L35R]	~74
chain 1 SQQEADEVERSNNYDLQGAAVQYLQRRLRMVEDELHEAINSKNVQQSRSEELEQQISKLTDNLQEYRNTVRELKLDLEKSKKKNEDLS [chain 1 L10R]	~87

Variants of: B3
Assay: yeast two-hybrid (β-galactosidase); Raf2 fused to Gal4 DNA-binding domain; Ccq1 fused to Gal4 activation domain; parent: 97; read off a plot

Variant	response
chain 1 V526R	~110
chain 1 M525R	~110
chain 1 Y518R	~4.5
chain 1 L519R	~4.8
chain 1 L523R	~51
chain 1 V516R	~3.8
chain 1 L511R	~3.8

Variants of: B4
Assay: yeast two-hybrid (β-galactosidase); Clr3 fused to the Gal4 DNA binding domain; Ccq1 fused to Gal4 activation domain; parent: 97; read off a plot

Variant	response
chain 1 L519R	~89
chain 1 V516R	~82
chain 1 L511R	~88
chain 1 Y518R	~80
chain 1 L523R	~94
